Experimental data taken from article PMC11609450, “Structure function analysis of ADP-dependent cyanobacterial phosphofructokinase reveals new phylogenetic grouping in the PFK-A family” (The Journal of Biological Chemistry, 2024).
One block for each molecule: values may come before it.

Assays:
PFK-A1 (Sll1196) [1] = molecular target: T1, PFK-A1 (Sll1196) (Synechocystis sp. PCC 6803, UniProt P72830); assay: coupled NADH assay (aldolase/TPI/GPDH), […] nm; global MWC fit; type: biochemical; settings: read-out: PFK-A11
T1 construct: gene pfkA1

[2] = molecular target: T2, PFK-A1 from A. brasilense (Azospirillum brasilense, UniProt A0A560AK87); assay: coupled NADH assay, phosphate donor specificity; type: biochemical; settings: 1 mM F6P, 2 mM ADP, 10 mM MgCl2, pH 7.7, 30 °C
T2 construct: gene pfkA; codon-optimized gene in pET15b, His tag, E. coli Rosetta (DE3), IMAC
T2 sequence (A0A560AK87 1-361): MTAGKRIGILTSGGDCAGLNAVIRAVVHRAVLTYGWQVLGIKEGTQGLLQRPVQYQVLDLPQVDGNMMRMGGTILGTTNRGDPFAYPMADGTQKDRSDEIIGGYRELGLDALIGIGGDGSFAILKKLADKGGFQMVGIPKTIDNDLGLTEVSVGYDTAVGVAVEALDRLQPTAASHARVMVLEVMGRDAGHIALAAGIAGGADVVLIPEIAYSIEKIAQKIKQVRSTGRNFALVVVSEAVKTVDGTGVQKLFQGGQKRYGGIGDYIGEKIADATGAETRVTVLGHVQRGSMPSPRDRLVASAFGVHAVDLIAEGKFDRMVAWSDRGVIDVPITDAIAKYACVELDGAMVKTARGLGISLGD

[3] = molecular target: T3, PFK-A1 from Crocosphaera subtropica (Crocosphaera subtropica, UniProt B1WQ98); assay: coupled NADH assay, phosphate donor specificity; type: biochemical; settings: 1 mM F6P, 2 mM ADP, 10 mM MgCl2, pH 7.7, 30 °C
T3 construct: gene pfkA1; codon-optimized gene in pET15b, His tag, E. coli Rosetta (DE3), IMAC
T3 sequence (B1WQ98 1-360): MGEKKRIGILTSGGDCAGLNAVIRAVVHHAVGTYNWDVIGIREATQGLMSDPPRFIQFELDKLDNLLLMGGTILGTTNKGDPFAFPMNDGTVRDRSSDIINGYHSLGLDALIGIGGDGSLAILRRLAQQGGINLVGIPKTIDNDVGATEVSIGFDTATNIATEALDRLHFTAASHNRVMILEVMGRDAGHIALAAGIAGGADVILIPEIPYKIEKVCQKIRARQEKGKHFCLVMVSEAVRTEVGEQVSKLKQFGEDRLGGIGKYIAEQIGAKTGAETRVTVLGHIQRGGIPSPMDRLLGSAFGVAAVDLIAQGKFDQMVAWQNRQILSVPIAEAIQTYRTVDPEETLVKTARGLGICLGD

[4] = molecular target: T4, PFK-A2 from M. aeruginosa PCC 9808 (Microcystis aeruginosa, UniProt I4HJC6); assay: coupled NADH assay, phosphate donor specificity; type: biochemical; settings: 1 mM F6P, 2 mM ADP, 10 mM MgCl2, pH 7.7, 30 °C
T4 construct: gene pfkA; codon-optimized gene in pET15b, His tag, E. coli Rosetta (DE3), IMAC
T4 sequence (I4HJC6 1-402): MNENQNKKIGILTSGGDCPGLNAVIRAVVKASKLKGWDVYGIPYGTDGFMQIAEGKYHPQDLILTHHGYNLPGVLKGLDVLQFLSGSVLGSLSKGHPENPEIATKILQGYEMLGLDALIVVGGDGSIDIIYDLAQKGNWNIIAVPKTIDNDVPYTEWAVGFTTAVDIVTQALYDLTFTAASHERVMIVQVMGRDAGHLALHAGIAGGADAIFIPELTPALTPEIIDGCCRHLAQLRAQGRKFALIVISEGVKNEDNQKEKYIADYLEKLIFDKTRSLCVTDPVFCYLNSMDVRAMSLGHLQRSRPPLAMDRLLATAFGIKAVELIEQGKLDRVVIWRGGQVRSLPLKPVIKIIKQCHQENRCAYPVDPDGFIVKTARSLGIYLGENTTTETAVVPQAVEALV

PFK-A1 (Sll1196) [5] = molecular target: T1, PFK-A1 (Sll1196); assay: coupled NADH assay, effector test; type: biochemical; settings: read-out: % residual activity at 1 mM
PFK-A2 (Sll0745) = molecular target: T5, PFK-A2 (Sll0745) (Synechocystis sp. PCC 6803, UniProt Q55988); assay: coupled NADH assay (aldolase/TPI/GPDH), […] nm; global MWC fit; type: biochemical
T5 construct: gene pfkA2

[6] = molecular target: the molecule itself; assay: SEC; HiLoad 16/600 Superdex 200 prep grade, 50 mM HEPES/NaOH pH 7.5 (RT), 300 mM NaCl, 3 mM dithiothreitol, 1 ml/min; calibrated with five standard proteins; PFK-A1 applied at 5 mg/ml (62.5 uM), PFK-A2 at 7 mg/ml (87.5 uM); self-association
purified protein = substrate: Nc1ncnc2c1ncn2[C@@H]1O[C@H](COP(=O)(O)OP(=O)(O)O)[C@@H](O)[C@H]1O; assay: purified protein; type: biochemical, Synechocystis sp. PCC 6803; settings: MWC R-state constant, co-substrate F6P
[7] = molecular target: the molecule itself; assay: native MS; nanoESI, Exactive Plus EMR Orbitrap, positive EMR mode; protein rebuffered to 200 mM or 1 M ammonium acetate pH 6.8, 5 uM stock; PFK-A1 also with F6P; self-association

Molecule: Nc1ncnc2c1ncn2[C@@H]1O[C@H](COP(=O)(O)OP(=O)(O)O)[C@@H](O)[C@H]1O [ADP]
coupled NADH assay, phosphate donor specificity [2]: all three tested enzymes were specific for ADP and showed no activity with ATP
coupled NADH assay, phosphate donor specificity [3]: all three tested enzymes were specific for ADP and showed no activity with ATP
coupled NADH assay, phosphate donor specificity [4]: all three tested enzymes were specific for ADP and showed no activity with ATP

B1: Synechocystis sp. PCC 6803 ADP-dependent phosphofructokinase PFK-A1 (Sll1196) (enzyme, UniProt P72830 1-361, looked up)
chain: MGEIKRIGILTSGGDCAGLNAVIRSVVHHAIGTYGWEVIGIQEATQGLMENPSKAIALHRDNIDHLLMMGGTFLGTTNKGNPFAFPMADGTVRDRTEDIIAGYRQLGLDALIGIGGDGSLAILRRIAQQGGINLVGIPKTIDNDVGATEISIGFDTATNIATEALDRLHFTAASHNRVMVLEVMGRDAGHIALAAGIGGGADIILIPEIPYRIQSVCNKIRQRQAEGKNFCLVMVSEAVRTELGDQVKQIQQFGEDRYGGIGKYIAEQIAQRTGAETRVTVLGHIQRGGIPSPFDRLLGSVFGVAAVDLIAEGKFDHMVAWRNRQTISVPIEEAIQTYQTVQLDGTLVKTARGLGICLGND
notes: Phosphofructokinase isoenzyme PFK-A1 (sll1196) of Synechocystis sp; PCC 6803, amplified from genomic DNA with primers from the start codon (NdeI) to the stop codon (BamHI); calculated mass 40.47 kDa; Oligomeric state differs by method (dimer by SEC, mainly tetramer by native MS), so copies is left empty; No tag cleavage is described; also called ADP-PFK-A1; source: E. coli Rosetta (DE3), pET15b, …
stoichiometry N [6]: 2
Km (purified protein; 10 mM MgCl2, pH 7.7, 30 °C): 0.14 (±0.01) mM
kcat (purified protein; 10 mM MgCl2, pH 7.7, 30 °C): 5.9 s⁻¹
stoichiometry N [7]: 4

B2: Synechocystis sp. PCC 6803 ADP-dependent phosphofructokinase PFK-A2 (Sll0745) (enzyme, UniProt Q55988 1-384, looked up)
chain: MGTKRIGILTSGGDCPGLNAVIRAVVKASALKGWEVYGIPYGTDGFVEVAHGKYQAEDLLLTKHGYALPGMLKGLDVLQFLSGSVLGSLSKGHPEQPAIAEAILKGYAILDLEALIVIGGDGSLDIIYDLAQKGNWHIIAIPKTIDNDVPFTDLAVGFSTAVDIVTQALYDLTFTAASHERIIIVQVMGRDAGHLTLHAGIAGGADIILIPEITPCLTSEIIRNCCYQLMNLRKSGRHFALIVISEGVHDQNNKKNKHIADYLAEEISETSQHLCDIKDPAFCDLISLDIRATTLGHLQRSGTPLSFDRLLATVFGIRAVELIEQEIYDQVVIWRSGKVEHADLKPIISIIKECHQENRCPFPVDRDGFMVKTAKSLGIYLGED
notes: Phosphofructokinase isoenzyme PFK-A2 (sll0745) of Synechocystis sp; PCC 6803, amplified from genomic DNA with primers from the start codon (NdeI) to the stop codon (BamHI); calculated mass 43.64 kDa; Mainly dimer by SEC and native MS, with a lesser tetramer by native MS, so copies is left empty; No tag cleavage is described; also called ADP-PFK-A2; source: E. coli Rosetta (DE3), pET15b, purified …
stoichiometry N [6]: 2
Km (purified protein; 5 mM MgCl2, pH 7.7, 30 °C): 0.17 (±0.03) mM
kcat (purified protein; 5 mM MgCl2, pH 7.7, 30 °C): 12.3 s⁻¹
stoichiometry N [7]: 4

More lines, now with the values ahead:

Ki (PFK-A1 (Sll1196) [1]): 110 µM
Molecule: O=C(O)[C@H](O)COP(=O)(O)O [3PG]

remaining activity at 1000 µM (PFK-A1 (Sll1196) [5]): 96%
Ki (PFK-A2 (Sll0745)): 200 µM
Molecule: Nc1ncnc2c1ncn2[C@@H]1O[C@H](COP(=O)(O)OP(=O)(O)OP(=O)(O)O)[C@@H](O)[C@H]1O [ATP]

remaining activity at 1000 µM (PFK-A1 (Sll1196) [5]): 86%
Molecule: C=C(OP(=O)(O)O)C(=O)O [PEP]
